Measurements as given in US20030175270.

What was measured:
[1] = target: JAK2 immunoprecipitated from BMMC lysates (tyrosine-phosphorylated) (UniProt Q62120)
[2] = target: JAK1 immunoprecipitated from BMMC lysates (UniProt P52332)
[3] = target: Lyn immunoprecipitated from BMMC lysates (UniProt P25911)
[4] = target: STAT3 immunoprecipitated from BMMC lysates (UniProt P42227)
[5] = target: STAT5 immunoprecipitated from BMMC lysates (UniProt Q9JIA0)
[6] = target: Tyk2 immunoprecipitated from macrophage lysates (UniProt Q9R117)

Sequence of JAK2 immunoprecipitated from BMMC lysates (tyrosine-phosphorylated) (Q62120 whole entry): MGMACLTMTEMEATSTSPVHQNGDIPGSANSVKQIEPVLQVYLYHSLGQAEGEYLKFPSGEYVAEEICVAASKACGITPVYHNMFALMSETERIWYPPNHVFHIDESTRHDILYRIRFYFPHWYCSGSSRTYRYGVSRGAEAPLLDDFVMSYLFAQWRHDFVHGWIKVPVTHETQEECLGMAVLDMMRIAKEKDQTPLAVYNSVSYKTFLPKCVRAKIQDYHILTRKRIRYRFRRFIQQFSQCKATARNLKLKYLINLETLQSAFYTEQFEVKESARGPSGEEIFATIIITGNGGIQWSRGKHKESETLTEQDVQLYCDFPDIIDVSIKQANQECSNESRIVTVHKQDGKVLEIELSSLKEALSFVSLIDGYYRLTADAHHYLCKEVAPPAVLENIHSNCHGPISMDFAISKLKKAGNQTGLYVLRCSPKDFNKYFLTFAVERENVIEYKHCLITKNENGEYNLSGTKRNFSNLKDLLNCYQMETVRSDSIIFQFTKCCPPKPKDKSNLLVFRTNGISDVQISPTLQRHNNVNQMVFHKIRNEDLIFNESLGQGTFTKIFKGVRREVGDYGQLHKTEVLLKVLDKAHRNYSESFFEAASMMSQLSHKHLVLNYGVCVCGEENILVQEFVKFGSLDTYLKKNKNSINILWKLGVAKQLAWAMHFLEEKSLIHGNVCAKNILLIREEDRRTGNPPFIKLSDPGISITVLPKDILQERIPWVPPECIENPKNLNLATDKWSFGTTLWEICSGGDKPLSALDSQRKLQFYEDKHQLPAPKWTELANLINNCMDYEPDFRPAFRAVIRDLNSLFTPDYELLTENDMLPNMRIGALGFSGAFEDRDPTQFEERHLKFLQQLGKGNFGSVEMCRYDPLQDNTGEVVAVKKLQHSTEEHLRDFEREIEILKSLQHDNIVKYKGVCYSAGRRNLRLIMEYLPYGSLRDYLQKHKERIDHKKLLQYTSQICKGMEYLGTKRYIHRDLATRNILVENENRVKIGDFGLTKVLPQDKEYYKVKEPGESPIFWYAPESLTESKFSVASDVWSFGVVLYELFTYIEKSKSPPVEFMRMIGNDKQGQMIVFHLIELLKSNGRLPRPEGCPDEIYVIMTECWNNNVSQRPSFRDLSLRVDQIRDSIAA
Sequence of Lyn immunoprecipitated from BMMC lysates (P25911 2-512): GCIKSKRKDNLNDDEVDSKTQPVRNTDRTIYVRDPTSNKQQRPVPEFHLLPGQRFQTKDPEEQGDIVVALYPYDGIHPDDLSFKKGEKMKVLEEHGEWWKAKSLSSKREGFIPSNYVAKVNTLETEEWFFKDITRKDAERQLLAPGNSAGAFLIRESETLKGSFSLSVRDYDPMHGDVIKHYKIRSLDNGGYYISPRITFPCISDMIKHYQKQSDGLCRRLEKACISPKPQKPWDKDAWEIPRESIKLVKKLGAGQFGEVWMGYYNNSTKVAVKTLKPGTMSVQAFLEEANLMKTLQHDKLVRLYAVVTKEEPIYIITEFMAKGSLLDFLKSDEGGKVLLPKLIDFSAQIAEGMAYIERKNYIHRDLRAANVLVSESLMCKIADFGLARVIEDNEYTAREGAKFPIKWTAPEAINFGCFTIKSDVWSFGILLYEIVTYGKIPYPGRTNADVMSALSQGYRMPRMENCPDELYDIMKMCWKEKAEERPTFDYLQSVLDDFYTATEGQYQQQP
Sequence of STAT3 immunoprecipitated from BMMC lysates (P42227 2-770): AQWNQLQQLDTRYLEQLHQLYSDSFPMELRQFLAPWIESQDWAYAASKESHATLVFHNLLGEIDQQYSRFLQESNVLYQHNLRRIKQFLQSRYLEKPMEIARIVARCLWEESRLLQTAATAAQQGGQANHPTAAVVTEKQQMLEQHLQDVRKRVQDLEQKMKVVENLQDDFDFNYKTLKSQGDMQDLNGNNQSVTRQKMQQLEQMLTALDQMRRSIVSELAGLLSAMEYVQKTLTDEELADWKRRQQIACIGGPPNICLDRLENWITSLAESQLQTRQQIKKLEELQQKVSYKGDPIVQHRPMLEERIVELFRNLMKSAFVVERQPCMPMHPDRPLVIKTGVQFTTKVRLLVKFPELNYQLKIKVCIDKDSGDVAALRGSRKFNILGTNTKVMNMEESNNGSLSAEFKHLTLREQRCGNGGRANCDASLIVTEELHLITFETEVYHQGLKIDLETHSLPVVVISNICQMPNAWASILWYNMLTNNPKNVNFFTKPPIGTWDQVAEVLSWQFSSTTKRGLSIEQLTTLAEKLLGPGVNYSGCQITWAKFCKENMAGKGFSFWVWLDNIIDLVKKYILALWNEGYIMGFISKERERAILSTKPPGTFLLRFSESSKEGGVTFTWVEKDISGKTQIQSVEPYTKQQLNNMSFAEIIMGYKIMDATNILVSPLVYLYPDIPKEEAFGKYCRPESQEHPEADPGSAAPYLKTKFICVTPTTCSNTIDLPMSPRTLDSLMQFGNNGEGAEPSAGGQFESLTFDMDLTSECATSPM
Sequence of JAK1 immunoprecipitated from BMMC lysates (P52332 whole entry): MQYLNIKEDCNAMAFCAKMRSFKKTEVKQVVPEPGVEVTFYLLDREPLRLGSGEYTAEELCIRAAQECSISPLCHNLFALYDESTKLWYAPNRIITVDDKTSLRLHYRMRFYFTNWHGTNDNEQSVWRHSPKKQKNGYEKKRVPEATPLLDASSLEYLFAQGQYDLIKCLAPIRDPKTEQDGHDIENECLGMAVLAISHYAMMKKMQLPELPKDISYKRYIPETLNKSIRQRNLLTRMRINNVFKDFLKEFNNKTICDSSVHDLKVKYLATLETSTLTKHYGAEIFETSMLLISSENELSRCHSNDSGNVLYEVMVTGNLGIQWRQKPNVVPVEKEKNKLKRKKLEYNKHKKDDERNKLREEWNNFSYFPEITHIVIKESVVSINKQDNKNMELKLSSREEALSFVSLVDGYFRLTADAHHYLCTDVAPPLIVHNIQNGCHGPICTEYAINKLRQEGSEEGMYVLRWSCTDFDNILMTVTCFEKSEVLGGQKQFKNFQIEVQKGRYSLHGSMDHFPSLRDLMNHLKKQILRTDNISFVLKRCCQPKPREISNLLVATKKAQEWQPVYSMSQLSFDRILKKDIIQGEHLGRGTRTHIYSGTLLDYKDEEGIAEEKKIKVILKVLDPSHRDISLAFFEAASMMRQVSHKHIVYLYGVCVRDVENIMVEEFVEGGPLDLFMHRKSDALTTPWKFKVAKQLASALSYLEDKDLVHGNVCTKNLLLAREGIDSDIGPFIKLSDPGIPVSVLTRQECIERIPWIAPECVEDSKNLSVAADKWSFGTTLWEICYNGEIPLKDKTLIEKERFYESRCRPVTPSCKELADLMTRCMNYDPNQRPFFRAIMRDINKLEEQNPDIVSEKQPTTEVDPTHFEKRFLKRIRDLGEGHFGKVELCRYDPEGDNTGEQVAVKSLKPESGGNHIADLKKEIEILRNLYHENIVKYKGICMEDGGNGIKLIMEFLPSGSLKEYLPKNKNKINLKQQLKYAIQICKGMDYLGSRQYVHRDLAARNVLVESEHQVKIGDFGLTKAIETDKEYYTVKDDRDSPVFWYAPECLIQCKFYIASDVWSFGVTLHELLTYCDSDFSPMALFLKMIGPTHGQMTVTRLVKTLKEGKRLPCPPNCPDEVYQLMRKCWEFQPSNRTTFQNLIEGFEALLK

Row | Substance | tyrosine dephosphorylation in vitro (phosphatase assay) [1] | dephosphorylation of critical tyrosine residues in vitro (site-specific phospho-specific antibodies) [2] | dephosphorylation of critical tyrosine residues in vitro (site-specific phospho-specific antibodies) [1] | tyrosine dephosphorylation in vitro (phosphatase assay, immunoblot) [1] | tyrosine dephosphorylation in vitro (phosphatase assay, immunoblot) [3] | tyrosine dephosphorylation in vitro (phosphatase assay, immunoblot) [4] | tyrosine dephosphorylation in vitro (phosphatase assay, immunoblot) [5] | dephosphorylation of critical tyrosine residues in vitro (site-specific phospho-specific antibodies) [6]
1 | PTPase-dead rCD45 (D1:C828S mutant) | PTPase-dead rCD45 (D1:C828S mutant) did not dephosphorylate JAK2 | – | – | – | – | – | – | –
2 | recombinant CD45 (intracellular dual PTPase domains, Mr 97K, catalytic D1 and non-catalytic D2, lacking extracellular regions) | – | rCD45 does indeed dephosphorylate the critical tyrosine residues of JAK1, JAK2, and Tyk2 in vitro | rCD45 does indeed dephosphorylate the critical tyrosine residues of JAK1, JAK2, and Tyk2 in vitro | rCD45 did, however, dephosphorylate JAK2 in vitro | rCD45 dephosphorylated Lyn in a dose-dependent manner | tyrosine dephosphorylation of STAT3 (FIGS. 3A and 3B) and STAT5 did not occur after incubation with rCD45, even at high concentrations of rCD45 | tyrosine dephosphorylation of STAT3 (FIGS. 3A and 3B) and STAT5 did not occur after incubation with rCD45, even at high concentrations of rCD45 | rCD45 does indeed dephosphorylate the critical tyrosine residues of JAK1, JAK2, and Tyk2 in vitro
